# “And” between values parts separate entries of the source, which are not always exact repeats. Equal values may be shown once. Marks after values point to notes of the source that are not given here.
# T1: full-length TgCBS (Toxoplasma gondii, UniProt A0A125YSJ9)
# T1 construct: gene TGME49_259180; full-length, residues 1-514; N-terminal 6xHis tag; E. coli Rosetta (DE3); ~57 kDa subunit; mainly dimer
# T1 sequence (A0A125YSJ9 1-514): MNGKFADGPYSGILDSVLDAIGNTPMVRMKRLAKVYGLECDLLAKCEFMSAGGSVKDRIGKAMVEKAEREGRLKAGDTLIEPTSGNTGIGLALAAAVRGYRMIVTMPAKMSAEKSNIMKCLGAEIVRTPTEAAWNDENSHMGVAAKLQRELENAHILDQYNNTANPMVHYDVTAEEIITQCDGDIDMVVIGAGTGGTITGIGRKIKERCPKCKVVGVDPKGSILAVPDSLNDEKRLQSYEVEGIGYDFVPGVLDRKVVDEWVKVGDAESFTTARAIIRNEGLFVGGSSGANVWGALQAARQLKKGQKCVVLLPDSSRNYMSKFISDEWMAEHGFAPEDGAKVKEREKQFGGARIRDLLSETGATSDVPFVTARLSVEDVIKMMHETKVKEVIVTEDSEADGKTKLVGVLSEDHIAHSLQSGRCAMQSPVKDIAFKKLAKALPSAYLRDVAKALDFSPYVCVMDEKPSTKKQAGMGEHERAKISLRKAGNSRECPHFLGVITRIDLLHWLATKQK
# B1: TgCBS R353* (TgCBS lacking the C-terminal Bateman module) (domain or fragment, Toxoplasma gondii, UniProt A0A125YSJ9 1-352, looked up)
# chain: MNGKFADGPYSGILDSVLDAIGNTPMVRMKRLAKVYGLECDLLAKCEFMSAGGSVKDRIGKAMVEKAEREGRLKAGDTLIEPTSGNTGIGLALAAAVRGYRMIVTMPAKMSAEKSNIMKCLGAEIVRTPTEAAWNDENSHMGVAAKLQRELENAHILDQYNNTANPMVHYDVTAEEIITQCDGDIDMVVIGAGTGGTITGIGRKIKERCPKCKVVGVDPKGSILAVPDSLNDEKRLQSYEVEGIGYDFVPGVLDRKVVDEWVKVGDAESFTTARAIIRNEGLFVGGSSGANVWGALQAARQLKKGQKCVVLLPDSSRNYMSKFISDEWMAEHGFAPEDGAKVKEREKQFGGA
# notes: Cystathionine beta-synthase (TgCBS), Toxoplasma gondii, residues 1-352 (catalytic domain and interdomain linker); 39 kDa subunit; made by site-directed mutagenesis on pET21a-TgCBS; also called C-terminally truncated TgCBS; truncated TgCBS; source: E. coli Rosetta (DE3), purified (Ni-sepharose, as the wild-type enzyme); not shown: His6, N-terminal, kept
# B2: Full-length cystathionine beta-synthase from Toxoplasma gondii (enzyme, UniProt A0A125YSJ9 1-514, looked up)
# chain: T1 sequence (A0A125YSJ9 1-514)
# notes: the cited crystal structure PDB 6XWL is of a construct lacking an internal loop (TgCBS Δ466-491); PLP-dependent enzyme; also called TgCBS; full-length TgCBS; source: E. coli Rosetta (DE3), purified (Ni-sepharose); not shown: His6, N-terminal, kept
# What was measured:
# [1] = biological target: Proteolysed full-length TgCBS (39 kDa trypsin-resistant core) (Toxoplasma gondii); assay: SEC; 250 ug TgCBS incubated with trypsin 1:200 (w/w) for 120 min, stopped with a two-fold weight excess of soybean trypsin inhibitor, loaded on Superdex 200 10/300 GL; TgCBS R353* at 0.5 mg/mL run for comparison
# full-length TgCBS = biological target: T1, full-length TgCBS; assay: continuous CBL-LDH coupled assay; format: biochemical; conditions: saturating L-Ser and L-Hcys; pH 9, 37 °C; activity after heat pre-treatment or trypsinolysis
# TgCBS R353* = biological target: T2, TgCBS R353* (Toxoplasma gondii, UniProt A0A125YSJ9); assay: UV-Vis absorption ([…] nm internal aldimine); PLP content by NaOH, […] nm; format: binding; conditions: stoichiometry; covalent internal aldimine, as purified
# T2 construct: gene TGME49_259180; C-terminally truncated (stop codon at R353; residues 353-514, Bateman module, removed), residues 1-352; N-terminal 6xHis tag; pET21a, E. coli Rosetta (DE3); 39 kDa; mainly dimer
# [2] = biological target: the molecule itself; assay: native gel or EMSA; native PAGE at 8, 9, 10 and 12% polyacrylamide, 10 ug/lane, Coomassie staining, Ferguson plot analysis with molecular mass standards
# [3] = biological target: the molecule itself; assay: SEC; Superdex 200 10/300 GL, protein at 1 mg/mL, 20 mM sodium phosphate buffer pH 8.5, 150 mM NaCl, 0.1 mM DTT; calibrated with standard proteins
Molecule,continuous CBL-LDH coupled assay (full-length TgCBS),stoichiometry N [3],other results
Proteolysed full-length TgCBS (39 kDa trypsin-resistant core) (from UniProt A0A125YSJ9 1-514) (domain or fragment),–,–,stoichiometry N [1]: 2
N[C@@H](CO)C(=O)O [L-Ser],full-length TgCBS (solid triangles) and TgCBS R353* (open circles) on their steady-state initial velocity,–,–
N[C@@H](CCS)C(=O)O [L-Hcys],at saturating concentration of L-Ser and L-Hcys in the canonical reaction,–,–
Cc1ncc(COP(=O)(O)O)c(C=O)c1O [PLP],–,–,PLP per monomer (TgCBS R353*): 0.9 ± 0.1 mol/mol
B1,–,2 and 4,stoichiometry N [2]: ~4 and ~2
B2,–,2 and 4,–

# Reference: article PMC9331509, “Insights into Domain Organization and Regulatory Mechanism of Cystathionine Beta-Synthase from Toxoplasma gondii” (International Journal of Molecular Sciences, 2022)
